Values quoted from earlier work, collected in US20260345619A1 (Principia Biopharma Inc., priority 2023, published 2026).

Settings: for efficacy: severe asthma, eosinophilic phenotype

Molecule | efficacy | patients with no decrease in oral corticosteroid (OCS) dose or lack of asthma control (high eosinophilic group (Bel E H et al., 2014)) [%]
reslizumab: anti-interleukin (IL)-5 agent (antibody, chains of the INN, looked up, V domains shown) VH: EVQLVESGGGLVQPGGSLRLSCAVSGLSLTSNSVNWIRQAPGKGLEWVGLIWSNGDTDYNSAIKSRFTISRDTSKSTVYLQMNSLRAEDTAVYYCAREYYGYFDYWGQGTLVTVSS VL: DIQMTQSPSSLSASVGDRVTITCLASEGISSYLAWYQQKPGKAPKLLIYGANSLQTGVPSRFSGSGSATDYTLTISSLQPEDFATYYCQQSYKFPNTFGQGTKVEVK | have shown efficacy | 
mepolizumab: anti-interleukin (IL)-5 agent (antibody, chains of the INN, looked up, V domains shown) VH: QVTLRESGPALVKPTQTLTLTCTVSGFSLTSYSVHWVRQPPGKGLEWLGVIWASGGTDYNSALMSRLSISKDTSRNQVVLTMTNMDPVDTATYYCARDPPSSLLRLDYWGRGTPVTVSS VL: DIVMTQSPDSLAVSLGERATINCKSSQSLLNSGNQKNYLAWYQQKPGQPPKLLIYGASTRESGVPDRFSGSGSGTDFTLTISSLQAEDVAVYYCQNVHSFPFTFGGGTKLEIK | have shown efficacy | 36
